Measurements published in the supplement of paper PMC7877785.
± gives the uncertainty stated by the source.

Experiment: self-splicing fitness, log relative to wild type (ln ratio); higher = more splicing; Tetrahymena group I intron in knt gene, E. coli kanamycin selection, DiMSum; sequences stand for … in CUCUCU…GGAGGGAAAAGUUAUCAGGCAUGCACCUGGUAGCUAGUCUUUAAACCAAUAGAUUGCAUCGGUUUAAAAGGCAAGACCGUCAAAUUGCGGGAAAGGGGUCAACAGCCGUUCAGUACCAAGUCUCAGGGGAAACUUUGAGAUGGCCUUGCAAAGGGUAUGGUAAUAAGCUGACGGACAUGGUCCUAACCACGCAGCCAAGUCCUAAGUCAACAGAUCUUCUGUUGAUAUGGAUGCAGUUCACAGACUAAAUGUCGGUCGGGGAAGAUGUAUUCUUCUCAUAAGAUAUAGUCGGACCUCUCCUUAAUGGGAGCUAGCGGAUGAAGUGAUGCAACACUGGAGCCGCUGGGAACUAAUUUGUAUGCGAAAGUAUAUUGAUUAGUUUUGGAGUACUCGUGGUCG
In short: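 The eight P1ex-region nucleotides of an intron in the knt kanamycin-resistance gene on pET-22b(+) were all randomised and the library put into E. coli BL21(DE3). Six replicate transformations were grown overnight at 37°C or 30°C on LB agar with or without 25 μg/mL kanamycin, together with 100 μg/mL carbenicillin, 50 μM IPTG and 0.2% rhamnose. Colonies were pooled and amplicon-sequenced on an Illumina HiSeq 2500. Fitness from DiMSum is the error-weighted combination of wild-type-normalised replicate fold changes, kanamycin over none.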

Sequence	self-splicing fitness (ln) (30 °C)	self-splicing fitness (ln) (37 °C)
GUGAAGCAAUAUUACGAGCA	0.204 ± 0.1	-0.115 ± 0.14
GUGAAGCAAUAUUACGAGCU	-1.12 ± 0.14	-1.19 ± 0.21
GUGAAGCAAUAUUACGCCAG	-1.09 ± 0.2	-1.1 ± 0.22
GUGAAGCAAUAUUACGCCGA	-0.95 ± 0.15	-0.474 ± 0.16
GUGAAGCAAUAUUACGCCUC	-1.22 ± 0.25	-1.09 ± 0.48
GUGAAGCAAUAUUACGCGCA	-0.00454 ± 0.099	0.509 ± 0.13
GUGAAGCAAUAUUACGCUAC	-3.39 ± 0.27	-1.95 ± 0.31
GUGAAGCAAUAUUACGCUUG	-1.44 ± 0.11	-0.0927 ± 0.098
GUGAAGCAAUAUUACGGAUU	-0.624 ± 0.1	-0.344 ± 0.12
GUGAAGCAAUAUUACGGCCC	-0.145 ± 0.18	
GUGAAGCAAUAUUACGGCUU	-4.92 ± 0.36	-3.3 ± 0.26
GUGAAGCAAUAUUACGGGAU	-1.1 ± 0.07	-0.971 ± 0.093
GUGAAGCAAUAUUACGUAAG	-0.979 ± 0.088	-0.0954 ± 0.13
GUGAAGCAAUAUUACGUAAU	-1.19 ± 0.057	-0.668 ± 0.069
GUGAAGCAAUAUUACGUCGC	-2.77 ± 0.25	-1.75 ± 0.18
GUGAAGCAAUAUUACGUGAA	-2.63 ± 0.11	-0.504 ± 0.12
GUGAAGCAAUAUUACGUGCG	-0.0545 ± 0.077	0.038 ± 0.094
GUGAAGCAAUAUUACGUUGU	-2.68 ± 0.17	-1.63 ± 0.15
GUGCAGCAAUAUUACGAAAU	-1.31 ± 0.084	-0.452 ± 0.097
GUGCAGCAAUAUUACGAGGC	-1.83 ± 0.31	-2.43 ± 0.26
GUGCAGCAAUAUUACGAUUU	-1.06 ± 0.1	-0.209 ± 0.12
GUGCAGCAAUAUUACGCAUC		-3.79 ± 0.37
GUGCAGCAAUAUUACGCCCU	-1.57 ± 0.14	-0.805 ± 0.16
GUGCAGCAAUAUUACGCCUU	-1.26 ± 0.16	-0.215 ± 0.14
GUGCAGCAAUAUUACGCGGC	-1.7 ± 0.14	-2.51 ± 0.23

Sequence	self-splicing fitness (ln) (30 °C)	self-splicing fitness (ln) (37 °C)
GUGCAGCAAUAUUACGCGUG	-1.52 ± 0.11	-1.66 ± 0.16
GUGCAGCAAUAUUACGGACC	-0.711 ± 0.31	
GUGCAGCAAUAUUACGGCCU	-0.775 ± 0.11	0.175 ± 0.13
GUGCAGCAAUAUUACGGCUA	-0.0246 ± 0.077	0.17 ± 0.096
GUGCAGCAAUAUUACGGUGG	-1.63 ± 0.11	-1.16 ± 0.13
GUGCAGCAAUAUUACGGUUG	-2.62 ± 0.19	-1.95 ± 0.16
GUGCAGCAAUAUUACGUACG	-2.19 ± 0.086	-1.18 ± 0.08
GUGCAGCAAUAUUACGUCCU	-0.637 ± 0.12	-0.541 ± 0.096
GUGCAGCAAUAUUACGUCGA	-1.22 ± 0.096	-0.927 ± 0.1
GUGCAGCAAUAUUACGUGGU	-2.55 ± 0.078	-1.1 ± 0.091
GUGCAGCAAUAUUACGUUCG	-1.52 ± 0.09	-0.675 ± 0.14
GUGGAGCAAUAUUACGAAAC		-2.23 ± 0.3
GUGGAGCAAUAUUACGAAGG	-2.69 ± 0.27	-2 ± 0.4
GUGGAGCAAUAUUACGACCU	-1.22 ± 0.094	-0.548 ± 0.11
GUGGAGCAAUAUUACGAGAU	-3.23 ± 0.36	-2.22 ± 0.41
GUGGAGCAAUAUUACGAGCC		-1.59 ± 0.35
GUGGAGCAAUAUUACGCUAU	-2.85 ± 0.25	
GUGGAGCAAUAUUACGCUCG	-1.35 ± 0.16	-1.39 ± 0.23
GUGGAGCAAUAUUACGGAGG	-2.41 ± 0.28	-0.95 ± 0.28
GUGGAGCAAUAUUACGGGGA	-3.12 ± 0.44	-2.65 ± 0.4
GUGGAGCAAUAUUACGGGUA	-2.09 ± 0.31	-2.4 ± 0.45
GUGGAGCAAUAUUACGGGUU	-3.16 ± 0.18	-3.15 ± 0.48
GUGGAGCAAUAUUACGUCGA	-3.42 ± 0.37	-1.48 ± 0.3
GUGGAGCAAUAUUACGUCUG		-1.75 ± 0.32
GUGGAGCAAUAUUACGUGUA	-2.68 ± 0.2	-2.85 ± 0.24
